Experimental data published in US8663655B2, “Method for transforming a bacterium belonging to the Streptococcus genus by natural competence” (Dupont Nutrition Biosciences APS, dated 2014).
Like-named read-outs stand apart in the source and are kept apart here.

T1: transcriptional regulator (Rgg) STER-0316 (Streptococcus thermophilus LMD-9)
T1 chain: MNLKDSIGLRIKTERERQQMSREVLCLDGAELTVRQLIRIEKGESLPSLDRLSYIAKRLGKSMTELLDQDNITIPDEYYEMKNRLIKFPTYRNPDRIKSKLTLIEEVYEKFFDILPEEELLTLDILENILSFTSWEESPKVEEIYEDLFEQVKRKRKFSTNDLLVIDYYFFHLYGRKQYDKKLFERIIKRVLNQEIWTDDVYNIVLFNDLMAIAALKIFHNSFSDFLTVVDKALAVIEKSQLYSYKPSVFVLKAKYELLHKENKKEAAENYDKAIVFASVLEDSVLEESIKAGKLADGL


What was measured:
[1] = molecular target: STER-0316 homologue of S. thermophilus CNRZ1066 (Streptococcus thermophilus CNRZ1066)
[2] = molecular target: T1, transcriptional regulator (Rgg) …; assay: cell-based or functional assay
[3] = molecular target: STER-0316 homologue of S. thermophilus CNRZ1066 (Streptococcus thermophilus CNRZ1066); remark: listed apart in the source
[4] = molecular target: STER-0316 homologue of S. thermophilus LMG18311 (Streptococcus thermophilus LMG18311)
[5] = molecular target: STER-0316 homologue of S. thermophilus CNRZ1066 (Streptococcus thermophilus CNRZ1066); remark: listed apart in the source
[6] = molecular target: STER-0316 homologue of S. thermophilus LMG18311 (Streptococcus thermophilus LMG18311); remark: listed apart in the source

| Transformation rate with peptide addition (1 µM) [2] | Molecule | further results |
| --- | --- | --- |
| – | synthetic peptide PYFTGCL | Transformation rate of S. thermophilus CNRZ1066 with peptide addition (1 µM) [1]: 3.48e-07 |
| < 1e-08 | LPYFAGC [synthetic peptide LPYFAGC] | – |
| < 1e-08 | AILPYFAGC [synthetic peptide AILPYFAGC] | – |
| < 1e-08 | PYFAG [synthetic peptide PYFAG] | – |
| 0.00318 | LPYFAGCL [synthetic peptide LPYFAGCL] | Transformation rate of S. thermophilus CNRZ1066 with peptide addition (1 µM), donor pGIUD0855cat [3]: 0.03; Transformation rate of S. thermophilus LMG18311 with peptide addition (1 µM), donor pGIUD0855cat [4]: 0.13 |
| < 1e-08 | PYFAGC [synthetic peptide PYFAGC] | – |
| 0.00342 | ILPYFAGCL [synthetic peptide ILPYFAGCL] | – |
| < 1e-08 | ILPYFAGC [synthetic peptide ILPYFAGC] | – |
| < 1e-08 | ILPYFAG [synthetic peptide ILPYFAG] | – |
| 0.00478 | PYFAGCL [synthetic peptide PYFAGCL] | Transformation rate of S. thermophilus CNRZ1066 with peptide addition (1 µM) [5]: 0.000369; Transformation rate of S. thermophilus LMG18311 with peptide addition (1 µM) [6]: 0.000317 |
| 0.00221 | AILPYFAGCL [synthetic peptide AILPYFAGCL] | – |
